Results reported in patent US20150098945A1 (Daiichi Sankyo, published 2015).

T1: mouse ROBO4 (pCI-mROBO4-transfected HEK293 cells) (mouse, UniProt Q8C310 28-1012)
T1 sequence: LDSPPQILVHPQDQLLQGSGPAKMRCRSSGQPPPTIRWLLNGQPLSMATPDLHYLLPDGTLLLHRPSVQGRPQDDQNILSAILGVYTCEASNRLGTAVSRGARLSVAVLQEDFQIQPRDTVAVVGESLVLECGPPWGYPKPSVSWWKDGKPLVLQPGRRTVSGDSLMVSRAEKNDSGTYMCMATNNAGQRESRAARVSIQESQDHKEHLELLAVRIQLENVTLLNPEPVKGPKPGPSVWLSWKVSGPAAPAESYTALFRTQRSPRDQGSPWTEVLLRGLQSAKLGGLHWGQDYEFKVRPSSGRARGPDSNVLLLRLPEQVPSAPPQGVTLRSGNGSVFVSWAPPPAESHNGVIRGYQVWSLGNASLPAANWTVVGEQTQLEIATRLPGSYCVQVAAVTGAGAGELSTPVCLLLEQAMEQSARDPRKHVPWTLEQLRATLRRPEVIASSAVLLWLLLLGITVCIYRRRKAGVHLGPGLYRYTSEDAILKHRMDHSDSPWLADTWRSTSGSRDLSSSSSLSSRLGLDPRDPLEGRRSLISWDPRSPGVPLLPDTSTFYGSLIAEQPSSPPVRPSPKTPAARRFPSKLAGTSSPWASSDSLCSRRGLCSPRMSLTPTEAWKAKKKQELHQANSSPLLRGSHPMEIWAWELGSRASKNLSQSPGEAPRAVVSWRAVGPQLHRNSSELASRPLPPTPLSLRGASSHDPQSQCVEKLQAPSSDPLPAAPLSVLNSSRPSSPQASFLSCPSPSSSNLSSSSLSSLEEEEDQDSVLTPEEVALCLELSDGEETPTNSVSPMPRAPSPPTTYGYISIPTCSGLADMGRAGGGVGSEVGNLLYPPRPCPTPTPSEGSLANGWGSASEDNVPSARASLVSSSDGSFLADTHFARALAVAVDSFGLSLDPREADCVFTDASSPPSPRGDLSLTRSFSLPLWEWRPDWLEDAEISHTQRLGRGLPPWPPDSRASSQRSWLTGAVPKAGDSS

T2: N-terminal FLAG-tagged human ROBO4 extracellular region/domain deletion variant hROBO4-210 (human, UniProt Q8WZ75 210-1007)
T2 construct: On transfected HEK293 cells; also called pCI-FLAG-hROBO4-210; pCI-hROBO4-210
T2 sequence: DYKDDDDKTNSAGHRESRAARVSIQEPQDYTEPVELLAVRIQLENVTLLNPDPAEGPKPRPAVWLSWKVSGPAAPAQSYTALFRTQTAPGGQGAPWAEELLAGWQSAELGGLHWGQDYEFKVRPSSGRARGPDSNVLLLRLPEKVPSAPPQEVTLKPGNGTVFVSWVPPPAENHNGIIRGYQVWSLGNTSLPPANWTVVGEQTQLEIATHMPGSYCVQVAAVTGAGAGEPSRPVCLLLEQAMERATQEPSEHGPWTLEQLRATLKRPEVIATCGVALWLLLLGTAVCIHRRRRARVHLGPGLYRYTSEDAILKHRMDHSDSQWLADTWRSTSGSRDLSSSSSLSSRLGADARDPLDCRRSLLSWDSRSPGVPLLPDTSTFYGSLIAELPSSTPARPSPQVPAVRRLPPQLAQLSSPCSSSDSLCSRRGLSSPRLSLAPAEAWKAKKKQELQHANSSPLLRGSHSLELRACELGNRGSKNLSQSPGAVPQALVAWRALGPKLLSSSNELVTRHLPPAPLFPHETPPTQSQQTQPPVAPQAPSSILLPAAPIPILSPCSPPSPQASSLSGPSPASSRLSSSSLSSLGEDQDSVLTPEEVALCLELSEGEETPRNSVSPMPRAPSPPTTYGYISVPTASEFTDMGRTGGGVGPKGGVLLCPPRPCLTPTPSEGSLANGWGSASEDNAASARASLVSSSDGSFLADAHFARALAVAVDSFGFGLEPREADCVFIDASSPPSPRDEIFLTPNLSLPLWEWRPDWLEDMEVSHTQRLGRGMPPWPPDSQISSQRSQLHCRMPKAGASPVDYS


What was measured:
[1] = target: T1, mouse ROBO4 (pCI-mROBO4-transfected …); assay: flow cytometry (FC500), HEK293 cells transfected with pCI-mROBO4, FITC goat anti-human IgG Fc; control histogram IgG (human IgG)
[2] = target: T2, N-terminal FLAG-tagged human ROBO4 …; assay: flow cytometry, HEK293 cells transfected with pCI-FLAG-hROBO4-210, anti-mouse IgG FITC; control histogram IgG (Mouse IgG2a)
Protocol: HEK293 cells were inoculated at a concentration of 1.5×10⁶ cells/dish to a 60-mm dish (manufactured by Corning Inc.) and cultured overnight in a DMEM medium containing 10% FBS at 37° C. under 5% CO₂ conditions. […] On the next day, the expression vector-transfected cells were treated with TrypLE Express (manufactured by Life Technologies Corp.), washed with PBS containing 5% FBS, and then suspended in PBS containing 5% FBS. The obtained cell suspension was used in flow cytometry analysis.
Each cell suspension prepared in 4)-5-1 was centrifuged, and the supernatant was removed. Then, MAb1, a positive control Monoclonal ANTI-FLAG M2 antibody produced in mouse, or a negative control Mouse IgG2a was added at a concentration of 10 μg/mL to 2×10⁵ expression vector-transfected cells, and the resulting suspension was left standing at 4° C. for 1 hour. The cells were washed once with PBS containing 5% FBS. Then, Anti-Mouse IgG FITC conjugate diluted 1000-fold with PBS containing 5% FBS was added thereto, and the resulting suspension was left standing at 4° C. for 1 hour. […] Data was analyzed using Flowjo. The histogram of FITC fluorescence intensity was prepared. The antibody was determined to bind to a cell when the histogram of MAb1 was shifted to a stronger fluorescence intensity region compared with the histogram of the negative control Mouse IgG2a. […]

Binder	binding result [1]	binding result [2]
humanized MAb1 antibody H-2140 (antibody, human IgG2, kappa, V domains shown, Human IgG2 / kappa constant regions; also called hMAb1-H4-type heavy chain + hMAb1-L1-type light chain) VH: EVQLVESGGGLVQPGGSLRLSCAASGFTFSTYAMSWVRQAPGKRLEWVATISQGGTYTYYPDSVKGRFTISRDNAKNTLYLQMNSLRAEDTAVYYCARLIYYDYLDYWGQGTLVTVSS VL: DIVMTQSPLSLPVTLGEPASISCRSSQSLENSNGNTYLNWYLQKPGQSPQLLIYRVSNRFSGVPDRFSGSGSGTDFTLKISRVEAEDVGVYYCLQVTHVPWTFGPGTKVDIKR	no binding (tested: 10 µg/mL)	
anti-ROBO4 mouse monoclonal antibody MAb1 (antibody, mouse IgG1, V domains shown, Mouse IgG1 (gamma1), kappa light chain, purified from hybridoma supernatant; also called parent antibody MAb1) VH: EVQLVESGGGLVKPGGSLKLSCAASGFTFSTYAMSWVRQTPEKRLEWVATISNGGTYTYYPDSVKGRFTISRDNAENTLYLQMSSLRSEDTAMYFCARLIYYDYLDYWGHGTTLTVSS VL: DAVMTQTPLSLPVSLGDQASISCRSSQSLENSNGNTYLNWYFQKPGQSPQLLIYRVSNRFSGVLDRFSGSGSGTDFTLKISRVEAEDFGVYFCLQVTHVPWTFGGGTKLEIKR		no binding (tested: 10 µg/mL)
